Laboratory results: the supplement of paper PMC10126150
± gives the standard deviation of the averaged measurements.

Test system: ATP
Test: switch fluorescence ratio, 500 uM ATP over buffer (Cy3 cluster intensity, sum of 5 cycles each) (fold (ratio)); higher = stronger signal-on switching upon ATP binding; sequences stand for … in TCGTCGGCAGCGTCAGATGTGTATAAGAGACAGTTTTTTTTTTTTTTTTTTTTTTTTT…TC
Settings: aptamer strand: ATP DNA aptamer (quencher-CACCTGGGGGAGTATTGCGGAGGAAGG + anchor), 100 nM annealed; ATP concentration: 500 uM
Procedure, shortened: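 After annealing to 100 nM quencher-labelled ATP aptamer, Cy3-labelled switching-strand clusters on a modified Illumina MiSeq flow-cell were imaged in selection buffer. A second image followed after 15 min with 500 uM ATP at 22 °C, and five such buffer/ATP cycles were done, each separated by NaOH stripping and re-annealing. The fluorescence ratio, averaged per switch-domain sequence, is summed target-cycle over summed buffer-cycle Cy3 intensity per cluster, with clusters outside 100-1000 RFU excluded.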
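Note: ATP exposure 15 min at 22 °C before imaging.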

Sequence	switch fluorescence ratio
GATTACTTTG	0.9562 ± 0.0039
CAGAGGAACT	0.999 ± 0.035
CGCAGGGAGT	1.041 ± 0.01
GATTTTGGGA	0.9815 ± 0.0068
AGTGTTGTCA	0.97 ± 0.043
GACTTAGGGA	0.9949 ± 0.0013
GATTTGATTT	0.991 ± 0.037
TTCGGGCGAA	1 ± 0.029
GCGAGGGATT	1.02 ± 0.032
ATGGGGGACT	1.02 ± 0.051
CTTTTTTGTT	1 ± 0.021
AGGGTATGGT	1.01 ± 0.023
TCTTGGGGAG	0.9815 ± 0.0083
GGAATTTAAT	0.998 ± 0.0014
TTTACGCGTC	1.16 ± 0.27
TGAGTTATTT	1.01 ± 0.012
CGGGTGTAGG	1.02 ± 0.062
CATCGGTGTG	0.958 ± 0.047
GATTTTGTGG	0.971 ± 0.02
TTAGTTGGTA	0.987 ± 0.001
CTGTGCTAAT	1.1 ± 0.037
CGAGCGTGTG	0.9998 ± 0.0047
TCAAATTTTC	1.02 ± 0.026
GTTCTATCAT	0.961 ± 0.022
GTTGTTATAT	1.02 ± 0.037

Sequence	switch fluorescence ratio
GTCGGGGATA	1 ± 0.049
ATAGATCGCA	1.02 ± 0.018
GATATAGGTT	1 ± 0.02
GTTGGGAGGC	1.064 ± 0.0014
TCGGATGTGG	1.01 ± 0.056
GGTGGTCGGG	0.982 ± 0.0053
GTACTGTAGG	1 ± 0.026
TCAGAAGGCT	0.999 ± 0.065
TGAGATTTAG	0.988 ± 0.026
GAGTGCGGTT	0.99 ± 0.057
CAACAACATT	1.07 ± 0.12
GGATGTTTTG	1.03 ± 0.015
AGTTTATAGA	1.01 ± 0.023
TTTTCGTTTT	1.04 ± 0.082
GTGATTGACT	1.03 ± 0.025
ACACGTGGGC	1.02 ± 0.029
TTAGGCTTGT	0.996 ± 0.02
TTTTTGAGC	1.011 ± 0.0086
AATGGTGGCT	1.11 ± 0.099
CCGGGTTTCG	0.996 ± 0.035
CCTGGGGGAT	1.75 ± 0.43
TTTGCCGGG	1.02 ± 0.0019
CAGATCACGA	1.01 ± 0.017
AATGTTTTTT	1 ± 0.016
TTAATTCCGT	1.02 ± 0.032

Sequence	switch fluorescence ratio
TTGAAATAGT	1.01 ± 0.024
TTACGGAAGT	1.11 ± 0.13
TTACATCTGG	0.9842 ± 0.007
CTTTTTGGGA	0.987 ± 0.012
ATGGCGATTG	0.996 ± 0.0078
CCTTTTATTT	1.04 ± 0.018
TGGGGGTAAA	0.9997 ± 0.0091
AGTGGGAACA	1.01 ± 0.017
CTTTTGAGGA	0.9952 ± 0.0042
AGGGGATAAG	0.992 ± 0.029
TCAGGTAATT	1.03 ± 0.031
AATAAGAGTT	0.995 ± 0.05
GGATTAACTA	0.9887 ± 0.0061
AGGGGGTCTG	0.968 ± 0.017
ACTTGTAATT	0.997 ± 0.026
CTAATGGGAG	0.9726 ± 0.0092
ACCCCCTTCT	1.32 ± 0.048
GTGTTATATA	0.986 ± 0.013
TAGAAAGACT	1.07 ± 0.067
GTGGGCGGGA	1.07 ± 0.14
ATTAGGAAAA	1.02 ± 0.025
TTAAACCGGT	1.03 ± 0.037
CACGGGGTTG	0.982 ± 0.069
TATAAGAGAG	1 ± 0.024
TTTGCGCTTT	1.1 ± 0.084

Sequence	switch fluorescence ratio
GCGAGTGTGT	0.984 ± 0.029
GAATTTGGGT	0.98 ± 0.034
GATATTTTTA	0.98 ± 0.034
TTCGAGTATT	0.99 ± 0.019
TCGTTTGGAA	1 ± 0.025
TTTCTTTATC	0.974 ± 0.017
GCCGTGTATG	1.06 ± 0.14
TATAGAGGGA	0.988 ± 0.02
GTTATGTTGT	1.01 ± 0.04
AAGGGCAAAT	0.978 ± 0.015
TTCGGGGTCT	1.014 ± 0.0098
TGGGGTGGCT	0.985 ± 0.015
GTGGTTCCAA	0.9932 ± 0.0063
GGACTAGCTT	1.03 ± 0.032
TGTTGGAGAG	1.02 ± 0.02
ATGAAGAGCG	0.994 ± 0.015
GGTGGTGTCG	1 ± 0.017
CGACATGGTG	1.07 ± 0.027
TAGTCCTATG	0.969 ± 0.021
AAATTGGGCT	1.03 ± 0.026
GGGTATGCGG	0.978 ± 0.042
TTTTTGCTTT	1.06 ± 0.099
GGGGCTTTTA	0.97 ± 0.01
TTCGTTTCGG	1.01 ± 0.037
ATGTTGGGTG	1.02 ± 0.045

Sequence	switch fluorescence ratio
CTGGCTAGGT	0.988 ± 0.057
CAAAGGGTTA	0.9906 ± 0.0086
CCGTTATTCT	1.35 ± 0.27
TTCGTGCTTT	0.995 ± 0.035
CAAAGTTATA	1.0129 ± 0.00033
GGTTGCTAGG	0.9916 ± 0.0037
GGGGGGTGGG	0.996 ± 0.039
TGGGAGAGCG	0.973 ± 0.016
AGACGGGGGG	1 ± 0.039
ACGCGATATG	1.253 ± 0.01
TTGGAGAAA	1.27 ± 0.36
AATTTGGTTA	0.995 ± 0.045
GGGCGAGCTC	0.9982 ± 0.0061
ACCCCCCTGT	1.37 ± 0.41
GTACTAGTAT	0.977 ± 0.023
AAAGGGCGAT	0.976 ± 0.011
TCTATAAGGT	0.99 ± 0.022
ACTTTATTGG	1.03 ± 0.024
CAGGTTTAAA	0.992 ± 0.034
CGGTCAGGGC	1.02 ± 0.014
TAGGTGACAA	1 ± 0.015
TGCAAGCGGG	0.985 ± 0.027
CGCACCACGA	1.208 ± 0.0072
ATCACTTGAC	1.104 ± 0.0078
CGTAAAGGGG	0.983 ± 0.026

Sequence	switch fluorescence ratio
AGTATTTTTG	1.01 ± 0.032
CGGTGACGCG	0.982 ± 0.028
TTCAGGTGGC	1.18 ± 0.17
TCCACGGTCT	1.0273 ± 0.00046
TTCTATTACC	1.01 ± 0.032
CGCGGGCGGA	1.021 ± 0.0044
TTTTCCACGG	1.21 ± 0.16
TAGTCGGTGG	0.9978 ± 0.0032
ATTAAGAAGG	1.002 ± 0.0095
TGGCTTGAGT	1.12 ± 0.19
AAAAGGAG	1.01 ± 0.016
CGTCGCTGGG	1.0111 ± 0.00071
GATTATTAGC	0.9999 ± 0.004
AGTTGTAAGG	0.962 ± 0.014
TTTACCAGGG	1.13 ± 0.085
AAGTATGGGT	0.998 ± 0.028
TGGGGGGCGA	0.997 ± 0.011
CGGGGTCCTA	1.01 ± 0.014
TGAAGGAGGG	1.02 ± 0.06
AACGAAAAAG	1.12 ± 0.18
TTTTGGCAAC	1.04 ± 0.079
ATACGGGAAG	1.05 ± 0.031
TTGATTATTA	1.02 ± 0.045
GACGCTTCG	0.931 ± 0.017
TCCATGATTG	0.973 ± 0.037

Sequence	switch fluorescence ratio
TAAACAGCTG	0.955 ± 0.043
CTGATGTCTA	0.977 ± 0.022
TAGCCGTCTA	1.058 ± 0.0034
ATGGCGAGGT	1.01 ± 0.059
TTGACACTGG	1.04 ± 0.02
GACAATTAGT	1.04 ± 0.0079
ATGGTCGGGG	0.995 ± 0.042
TGTGGAGCAT	1.29 ± 0.071
GGTATTTTTG	0.992 ± 0.019
TGATAGCCAG	0.9605 ± 0.0072
TTCCAGAATT	0.993 ± 0.051
ATGGCTGGGG	1 ± 0.019
GGTTATATAG	1.01 ± 0.016
TCCCTGTTTT	0.991 ± 0.016
TTTTATGCGA	1.01 ± 0.02
AGGGCGACGC	0.912 ± 0.025
GATTACATGC	1.01 ± 0.037
TTCAGGGGTA	1.02 ± 0.033
CATTTGAGTG	1 ± 0.042
TAGATGTAAC	0.975 ± 0.029
GGGCCTGGGG	0.998 ± 0.048
GGTCTTGGCA	0.985 ± 0.052
GGGAGCAGGG	0.909 ± 0.058
TCGGGTCGCC	1 ± 0.044
GATTGGGGCT	1.02 ± 0.039

Sequence	switch fluorescence ratio
GCGACTGCGG	0.982 ± 0.021
CGGGAGGGTT	1 ± 0.02
ACGAAAGGTT	1.034 ± 0.0089
GAGGTGGGTG	1.015 ± 0.0056
GTTCGTTAGG	1.017 ± 0.0016
ATACTGAGTT	1.05 ± 0.042
TGACGAGCTG	1.03 ± 0.035
GGGGATTCAA	0.988 ± 0.018
TATGGTTTCC	1.03 ± 0.05
CGGTTCGGCT	1.04 ± 0.047
TACGGGACGC	1.12 ± 0.047
CTGGTGGACG	1.041 ± 0.0042
GGGGTATGGC	1.03 ± 0.023
AAATCTGCTG	1 ± 0.061
TCGTACCTTG	1.01 ± 0.025
TTATCGGGCT	1.02 ± 0.023
CAGAGAGCGG	0.9815 ± 0.0031
CTCGATTTAT	0.9951 ± 0.0086
GGCTAGAAAA	1 ± 0.0099
TCCTTATTGG	1 ± 0.0068
GAGATGGTGC	0.99 ± 0.053
ACCAGTGGGC	1.04 ± 0.049
GAGGACTATT	0.999 ± 0.046
TATTTTAGGT	1.01 ± 0.048
AATTTAGGTC	0.934 ± 0.028
